Measurements from paper PMC3500560.

Molecular target: His6-tagged SYD-2LH1 (C. elegans) (UniProt Q21049)
Experiment: pull-down

Chain of His6-tagged SYD-2LH1 (C. elegans) (Q21049 91-217): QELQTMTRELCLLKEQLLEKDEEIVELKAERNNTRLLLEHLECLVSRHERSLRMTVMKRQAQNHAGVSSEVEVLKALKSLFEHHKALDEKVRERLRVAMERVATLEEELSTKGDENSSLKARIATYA

Work on “GST-LH1Δ (Δ179–198) (from UniProt Q21049 1-1139) (domain or fragment)” yielded a binding relative to SYD-2LH1 (percent) of under 10%.
